Molecular target: IAEDANS labeled sarcoplasmic reticulum Ca-ATPase (SERCA) (rabbit (purified from rabbit skeletal muscle)) (UniProt P04191)
Assay: FRET or BRET

Q: For “Dabcyl labeled monomeric AFA-PLB mutant (C36A/C41F/C46A) of phospholamban (peptide)”, which Xb (fraction of SERCA bound to PLB) (mole fraction) is on record?
A: 0.82
